The text below walks through data of publication PMC6458054 (Nature, 2017).

The target of assay [1] is full-length (FL) His-ASCC3 (human, UniProt Q8N3C0 1-2202). Kind of assay: pull-down.
In assay [2] the target is N-terminally deleted His-ASCC3 (human, UniProt Q8N3C0 401-2202). In words: pull-down.
Chain of N-terminally deleted His-ASCC3 (Q8N3C0 401-2202, stated change not applied): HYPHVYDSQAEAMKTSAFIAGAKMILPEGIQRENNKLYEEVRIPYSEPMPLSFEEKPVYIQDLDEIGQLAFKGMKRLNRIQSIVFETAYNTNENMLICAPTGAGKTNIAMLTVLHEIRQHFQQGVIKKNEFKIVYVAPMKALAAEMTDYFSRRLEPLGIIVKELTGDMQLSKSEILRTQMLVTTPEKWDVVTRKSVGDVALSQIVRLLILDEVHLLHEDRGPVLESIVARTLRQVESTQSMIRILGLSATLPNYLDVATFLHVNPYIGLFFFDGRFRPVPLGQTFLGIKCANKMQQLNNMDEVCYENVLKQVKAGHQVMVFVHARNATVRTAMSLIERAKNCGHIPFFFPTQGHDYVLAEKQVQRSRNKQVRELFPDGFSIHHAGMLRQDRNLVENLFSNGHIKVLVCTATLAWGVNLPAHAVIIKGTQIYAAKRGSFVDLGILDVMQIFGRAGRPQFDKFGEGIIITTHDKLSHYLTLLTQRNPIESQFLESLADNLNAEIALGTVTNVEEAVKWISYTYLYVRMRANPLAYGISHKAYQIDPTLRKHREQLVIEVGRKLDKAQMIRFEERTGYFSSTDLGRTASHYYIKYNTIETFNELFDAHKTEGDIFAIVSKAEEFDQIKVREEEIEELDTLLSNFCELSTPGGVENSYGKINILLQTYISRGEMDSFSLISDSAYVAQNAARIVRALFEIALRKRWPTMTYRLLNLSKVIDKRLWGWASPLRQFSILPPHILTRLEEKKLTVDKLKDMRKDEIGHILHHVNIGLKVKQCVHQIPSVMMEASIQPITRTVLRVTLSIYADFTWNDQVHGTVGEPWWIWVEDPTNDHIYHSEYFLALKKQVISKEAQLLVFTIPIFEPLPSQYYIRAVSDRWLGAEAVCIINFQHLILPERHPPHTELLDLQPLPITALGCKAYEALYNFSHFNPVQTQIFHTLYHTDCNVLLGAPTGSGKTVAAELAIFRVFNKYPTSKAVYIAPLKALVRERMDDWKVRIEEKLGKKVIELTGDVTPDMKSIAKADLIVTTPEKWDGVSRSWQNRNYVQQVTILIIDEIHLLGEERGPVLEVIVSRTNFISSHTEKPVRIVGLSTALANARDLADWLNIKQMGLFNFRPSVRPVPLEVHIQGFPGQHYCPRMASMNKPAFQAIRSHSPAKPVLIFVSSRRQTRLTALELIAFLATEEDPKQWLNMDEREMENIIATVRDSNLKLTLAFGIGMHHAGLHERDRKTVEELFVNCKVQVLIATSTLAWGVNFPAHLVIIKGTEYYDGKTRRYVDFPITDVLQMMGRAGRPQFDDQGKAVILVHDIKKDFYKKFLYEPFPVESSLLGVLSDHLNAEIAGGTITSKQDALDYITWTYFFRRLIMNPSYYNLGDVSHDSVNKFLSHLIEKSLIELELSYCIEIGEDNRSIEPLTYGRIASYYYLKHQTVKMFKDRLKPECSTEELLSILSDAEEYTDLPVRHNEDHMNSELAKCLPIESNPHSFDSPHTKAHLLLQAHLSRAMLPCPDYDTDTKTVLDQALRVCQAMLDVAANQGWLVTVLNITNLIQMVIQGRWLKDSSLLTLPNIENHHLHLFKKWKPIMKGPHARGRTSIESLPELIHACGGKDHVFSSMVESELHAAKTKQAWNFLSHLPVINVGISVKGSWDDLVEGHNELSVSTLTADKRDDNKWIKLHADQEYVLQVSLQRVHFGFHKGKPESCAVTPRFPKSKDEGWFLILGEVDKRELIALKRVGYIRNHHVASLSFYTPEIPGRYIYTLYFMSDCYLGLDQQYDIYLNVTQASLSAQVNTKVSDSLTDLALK

Chain of full-length (FL) His-ASCC3 (Q8N3C0 whole entry): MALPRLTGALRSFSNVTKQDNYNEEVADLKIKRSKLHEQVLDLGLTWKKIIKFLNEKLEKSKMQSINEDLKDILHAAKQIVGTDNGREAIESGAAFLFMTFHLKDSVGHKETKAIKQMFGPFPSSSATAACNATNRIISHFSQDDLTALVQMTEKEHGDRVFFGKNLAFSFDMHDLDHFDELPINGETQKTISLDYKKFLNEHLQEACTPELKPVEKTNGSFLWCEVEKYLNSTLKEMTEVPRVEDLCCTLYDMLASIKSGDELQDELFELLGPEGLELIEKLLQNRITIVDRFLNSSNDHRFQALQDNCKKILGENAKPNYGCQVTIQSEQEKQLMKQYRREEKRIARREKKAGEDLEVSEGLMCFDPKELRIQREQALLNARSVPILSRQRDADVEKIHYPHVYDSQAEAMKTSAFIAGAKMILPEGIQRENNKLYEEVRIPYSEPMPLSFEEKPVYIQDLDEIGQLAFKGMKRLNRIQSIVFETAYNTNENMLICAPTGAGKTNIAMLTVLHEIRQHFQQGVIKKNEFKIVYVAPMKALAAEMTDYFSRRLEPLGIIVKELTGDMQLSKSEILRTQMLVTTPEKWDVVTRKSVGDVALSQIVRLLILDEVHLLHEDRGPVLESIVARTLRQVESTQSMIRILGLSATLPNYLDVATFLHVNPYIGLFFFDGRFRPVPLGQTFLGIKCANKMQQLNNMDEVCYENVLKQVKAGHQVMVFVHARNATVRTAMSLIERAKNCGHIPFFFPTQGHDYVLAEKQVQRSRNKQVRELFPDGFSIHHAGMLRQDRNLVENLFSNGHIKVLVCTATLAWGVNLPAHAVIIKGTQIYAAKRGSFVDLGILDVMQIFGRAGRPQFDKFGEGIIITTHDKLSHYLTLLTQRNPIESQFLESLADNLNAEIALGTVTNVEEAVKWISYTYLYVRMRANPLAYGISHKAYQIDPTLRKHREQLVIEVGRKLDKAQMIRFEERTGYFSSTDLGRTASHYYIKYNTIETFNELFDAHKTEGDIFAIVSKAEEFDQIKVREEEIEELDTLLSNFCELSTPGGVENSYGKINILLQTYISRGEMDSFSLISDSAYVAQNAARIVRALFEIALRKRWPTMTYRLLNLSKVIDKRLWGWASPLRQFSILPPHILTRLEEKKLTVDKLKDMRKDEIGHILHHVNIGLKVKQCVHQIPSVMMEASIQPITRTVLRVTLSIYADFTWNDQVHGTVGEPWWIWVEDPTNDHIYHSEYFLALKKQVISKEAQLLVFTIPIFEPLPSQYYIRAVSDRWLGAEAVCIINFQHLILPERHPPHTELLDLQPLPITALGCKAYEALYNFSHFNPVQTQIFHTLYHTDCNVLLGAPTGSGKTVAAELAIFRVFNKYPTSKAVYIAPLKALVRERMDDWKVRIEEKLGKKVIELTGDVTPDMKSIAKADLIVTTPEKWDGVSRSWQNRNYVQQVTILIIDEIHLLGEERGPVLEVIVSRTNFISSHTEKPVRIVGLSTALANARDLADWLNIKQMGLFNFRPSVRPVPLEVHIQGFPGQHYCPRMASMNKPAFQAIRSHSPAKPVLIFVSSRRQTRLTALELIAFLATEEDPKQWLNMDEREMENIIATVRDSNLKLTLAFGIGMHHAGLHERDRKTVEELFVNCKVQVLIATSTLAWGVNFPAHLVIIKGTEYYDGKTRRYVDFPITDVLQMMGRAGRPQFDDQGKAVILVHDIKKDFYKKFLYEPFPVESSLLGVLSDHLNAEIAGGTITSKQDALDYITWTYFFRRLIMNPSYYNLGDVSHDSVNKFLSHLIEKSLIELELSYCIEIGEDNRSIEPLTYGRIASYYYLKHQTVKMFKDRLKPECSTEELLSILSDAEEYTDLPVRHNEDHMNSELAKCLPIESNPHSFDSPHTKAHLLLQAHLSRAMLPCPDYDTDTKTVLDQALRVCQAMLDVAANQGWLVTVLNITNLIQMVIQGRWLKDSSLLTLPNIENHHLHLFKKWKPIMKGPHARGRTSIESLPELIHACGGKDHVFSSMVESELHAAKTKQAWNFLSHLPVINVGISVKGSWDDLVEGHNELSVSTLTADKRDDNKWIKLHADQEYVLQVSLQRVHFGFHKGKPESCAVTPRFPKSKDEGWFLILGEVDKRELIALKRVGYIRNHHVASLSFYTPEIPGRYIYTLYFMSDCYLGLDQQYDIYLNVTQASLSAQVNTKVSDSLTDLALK

B1: Flag-ASCC2 (natural protein)
chain: MPALPLDQLQITHKDPKTGKLRTSPALHPEQKADRYFVLYKPPPKDNIPALVEEYLERATFVANDLDWLLALPHDKFWCQVIFDETLQKCLDSYLRYVPRKFDEGVASAPEVVDMQKRLHRSVFLTFLRMSTHKESKDHFISPSAFGEILYNNFLFDIPKILDLCVLFGKGNSPLLQKMIGNIFTQQPSYYSDLDETLPTILQVFSNILQHCGLQGDGANTTPQKLEERGRLTPSDMPLLELKDIVLYLCDTCTTLWAFLDIFPLACQTFQKHDFCYRLASFYEAAIPEMESAIKKRRLEDSKLLGDLWQRLSHSRKKLMEIFHIILNQICLLPILESSCDNIQGFIEEFLQIFSSLLQEKRFLRDYDALFPVAEDISLLQQASSVLDETRTAYILQAVESAWEGVDRRKATDAKDPSVIEEPNGEPNGVTVTAEAVSQASSHPENSEEEECMGAAAAVGPAMCGVELDSLISQVKDLLPDLGEGFILACLEYYHYDPEQVINNILEERLAPTLSQLDRNLDREMKPDPTPLLTSRHNVFQNDEFDVFSRDSVDLSRVHKGKSTRKEENTRSLLNDKRAVAAQRQRYEQYSVVVEEVPLQPGESLPYHSVYYEDEYDDTYDGNQVGANDADSDDELISRRPFTIPQVLRTKVPREGQEEDDDDEEDDADEEAPKPDHFVQDPAVLREKAEARRMAFLAKKGYRHDSSTAVAGSPRGHGQSRETTQERRKKEANKATRANHNRRTMADRKRSKGMIPS
With B1, the binding result in assay [1] was “binds”.

B2: Flag-ALKBH3 (enzyme)
chain: MEEKRRRARVQGAWAAPVKSQAIAQPATTAKSHLHQKPGQTWKNKEHHLSDREFVFKEPQQVVRRAPEPRVIDREGVYEISLSPTGVSRVCLYPGFVDVKEADWILEQLCQDVPWKQRTGIREDITYQQPRLTAWYGELPYTYSRITMEPNPHWHPVLRTLKNRIEENTGHTFNSLLCNLYRNEKDSVDWHSDDEPSLGRCPIIASLSFGATRTFEMRKKPPPEENGDYTYVERVKIPLDHGTLLIMEGATQADWQHRVPKEYHSREPRVNLTFRTVYPDPRGAPW
As to B2, the binding result in assay [2] was “binds”.
